Data published in US20080279856A1, “Inhibition of Bradykinin Release” (Novo Nordisk Pharmaceuticals, Inc., priority 1999, published 2008).
Entries after “also recorded” stand apart in the source; their conditions may differ.

Assays:
[1] = tested on: HBP-induced increase in EC permeability; assay: Inhibition of HBP-induced increase in EC permeability; assay type: cell-based, human, bovine; details: peptide 3 μg/ml for 30 min, wash; HBP 75 μg/ml; N=6
From the text: Alternatively, HBP antagonists may be detected by culturing endothelial cells in the presence of HBP and in the presence and absence of a substance suspected of being an antagonist. In a specific embodiment, the antagonist is a monoclonal antibody that binds to at least one epitope of HBP, preferably human HBP, wherein said epitope binds to prekallikrein-H-kininogen complex and activates release of bradykinin. In a preferred embodiment, the monoclonal antibody is a human monoclonal antibody. In one embodiment, the antibody and HBP are preincubated together before incubating with endothelial cells for about 10 minutes at 37° C. The effect of the substance on the permeability of endothelial cells is determined by measuring transendothelial electrical resistance or determining albumin clearance as described in the Examples, infra. A decrease in permeability would indicate that the substance does act as an HBP antagonist.
For measurement of electrical resistance across the EC monolayer, the filter insert is transferred to a resistance measurement chamber (ENDOHM-12; World Precision Instruments, Sarasota, Fla., USA) modified so as to assure exact positioning of the electrodes in relation to each other and to the filter insert during repeated measurements. The chamber (lower compartment) and the filter insert (upper compartment) are filled with 2 ml and 400 μl culture medium, respectively. […] Direct readings of the electrical resistance are given by an ohmmeter (EVOM; World Precision Instruments, Sarasota, Fla., USA) connected to the electrodes of the resistance chamber. The electrical resistance of individual EC monolayers is obtained by subtracting the resistance of the corresponding naked filter coated with Biomatrix as measured prior to seeding of the endothelial cells.
Evans blue dye-conjugated albumin (EBA) is used as a marker for macromolecular permeability of the EC monolayers. […] In experiments where albumin permeability is analyzed, the culture medium in the upper compartment is exchanged for medium containing EBA. […]

[2] = tested on: bradykinin-induced increase in EC permeability; assay: Inhibition of bradykinin-induced increase in EC permeability; assay type: cell-based, human, bovine; details: peptide 3 μg/ml for 30 min; bradykinin 100 nM at 15 min after HBP
Experimental: For measurement of electrical resistance across the EC monolayer, the filter insert is transferred to a resistance measurement chamber (ENDOHM-12; World Precision Instruments, Sarasota, Fla., USA) modified so as to assure exact positioning of the electrodes in relation to each other and to the filter insert during repeated measurements. The chamber (lower compartment) and the filter insert (upper compartment) are filled with 2 ml and 400 μl culture medium, respectively. All measurements are made at 37° C. with the equipment placed in a cell culture incubator. Direct readings of the electrical resistance are given by an ohmmeter (EVOM; World Precision Instruments, Sarasota, Fla., USA) connected to the electrodes of the resistance chamber. The electrical resistance of individual EC monolayers is obtained by subtracting the resistance of the corresponding naked filter coated with Biomatrix as measured prior to seeding of the endothelial cells.
Before transferring the filter inserts to the resistance measurement chamber (kept at 37° C.), the medium in the insert and in the chamber is replaced with fresh culture medium (37° C.) supplemented with 10 mM Hepes. HBP (25-100 μg/ml) or PMN secretion product is added either to the upper or the lower compartment and change in transendothelial electrical resistance is measured every minute until a plateau phase is reached, and thereafter at 5-min intervals. In separate experiments, PMNs (2×10^6) preincubated with mAb IB4 (10 μg/ml) are added to the upper compartment (PMN:EC ratio=10:1) and allowed to sediment for 10 min. Activation of the PMNs is induced through antibody crosslinking of leukocytic CD18 by addition of goat anti-mouse IgG F(ab′)2 diluted 1:20. In experiments where albumin permeability across the EC monolayer is studied, the medium in the insert contained EBA. During the experiment, the filter insert is moved at 5-10 min intervals to new wells containing fresh medium. All incubations are made at 37° C. After the experiment, the medium in the lower wells is aspirated and analyzed for EBA content.

endothelial cells = assay: EC response to CD18 cross-linking in PMNs (Ca2+ and TEER); assay type: cell-based, human, bovine; details: EC pre-treated
Experimental: Human umbilical vein endothelial cells (HUVEC) and bovine aorta endothelial cells (BAEC) are isolated and cultured as previously described (Gautam et al. 1998, Brit. J. Pharm. 125:1109-1114). HUVEC or BAEC in the first to fifth passages are detached by brief (2 min) trypsin-EDTA treatment (0.25% trypsin/0.01% EDTA) and replated onto either 0.2 μm pore size Anopore inorganic membrane or 3.0 μm pore size polycarbonate filters (Tissue Culture inserts, 10 mm; NUNC, Roskilde, Denmark). In order to promote cellular differentiation and enhance attachment of endothelial cells (ECs), the filters are pretreated with 50 μl Biomatrix 1 (167 μg/ml) and air-dried. […] The EC are grown to confluent monolayers, as assessed by daily microscopic observation and measurement of the electrical resistance across the monolayer (Gautam et al 1998, Brit. J. Pharm. 125:1109-1114).
Two different approaches are used for assessment of stimulation-induced changes in EC permeability. […] Electrical resistance across the EC monolayer is measured at 37° C. with electrodes in each compartment exactly positioned in relation to each other and to the monolayer. The electrical resistance of individual EC monolayers is obtained by subtracting the resistance of the corresponding naked filter coated with Biomatrix as measured prior to seeding of the endothelial cells. […]

[3] = 3H-LPS binding to HBP, scintillation proximity assay
Experimental: The affinity for lipopolysaccharide (3H-LPS) is measured by scintillation proximity assay technology (SPA) as described (Linde, V., Bjørn, S., Kastrup, J. S., and Flodgaard, H., 2000, Biotechniques 28:218-222). All samples are repeated in triplicates.

125I-BPTI = 125I-BPTI binding to HBP, scintillation proximity assay; design: species or system bovine
Experimental: (§1) The relative affinities of HBP and the mutants are determined by performing competition studies with […] of unlabeled BPTI.

human monocytes = assay: LPS induced IL-6 release from monocytes; assay type: cell-based; details: 24 hours, serum-free medium
From the text: Human monocytes are isolated and treated as described (Rasmussen, P. B., Bjørn, S., Hastrup, S., Nielsen, P. F., Norris, K., Thim, L., Wiberg, F. C., and Flodgaard, H. (1996) FEBS Lett. 390: 109-112), with the exception that 1% non-essential amino acids is excluded from the medium.

[4] = 125I-BPTI binding to HBP, scintillation proximity assay; design: species or system bovine; details: competition with unlabeled BPTI; read-out: apparent IC50 of 125I-BPTI binding
Experimental: as §1

aprotinin = aprotinin (Bos taurus, UniProt P00974); assay: Ability of HBP variants to bind aprotinin; assay type: binding

lipid A/LPS binding property [3] | binding of BPTI (125I-BPTI) | Molecule | effect on HBP-induced increase in EC permeability [1] | effect on bradykinin-induced permeability change [2] | stimulation of LPS induced cytokine-release (IL-6) (human monocytes) | other results
– | – | HKHGHGHHKKNKGKKNGKH (listed as Homo sapiens) [HKH20] | prevented | but not the permeability change induced by subsequent administration of bradykinin | – | –
– | – | SDDDWIPDIQTDPNGLSFNPISDFPDTTSPK (listed as Homo sapiens) [SDD31] | largely prevented | persisted | – | –
– | – | CC(=O)OCOC(=O)CN(CC(=O)OCOC(C)=O)c1ccccc1OCCOc1ccccc1N(CC(=O)OCOC(C)=O)CC(=O)OCOC(C)=O [BAPTA AM] | – | – | – | effect on change in TEER (endothelial cells): completely inhibited; effect on rise in EC free intracellular Ca2+ (endothelial cells): completely inhibited
comparable to that of native HBP | eliminated; also recorded: no binding | [G175Q]HBP: Mutant of human HBP with G175Q in the BPTI binding site (protein) IVGGRKARPRQFPFLASIQNQGRHFCGGALIHARFVMTAASCFQSQNPGVSTVVLGAYDLRRRERQSRQTFSISSMSENGYDPQQNLNDLMLLQLDREANLTSSVTILPLPLQNATVEAGTRCQVAGWGSQRSGGRLSRFPRFVNVTVTPEDQCRPNNVCTGVLTRRGGICNGDQGTPLVCEGLAHGVASFSLGPCGRGPDFFTRVALFRDWIDGVLNNPGP | – | – | only a very limited stimulation | –
do not affect | do not affect; also recorded: binds BPTI | [R23S,F25E]HBP: Mutant of human HBP with R23S and F25E in the putative lipid A/LPS binding site (protein) IVGGRKARPRQFPFLASIQNQGSHECGGALIHARFVMTAASCFQSQNPGVSTVVLGAYDLRRRERQSRQTFSISSMSENGYDPQQNLNDLMLLQLDREANLTSSVTILPLPLQNATVEAGTRCQVAGWGSQRSGGRLSRFPRFVNVTVTPEDQCRPNNVCTGVLTRRGGICNGDGGTPLVCEGLAHGVASFSLGPCGRGPDFFTRVALFRDWIDGVLNNPGP | – | – | do not affect | IC50 [4]: ~7 nM; binding capacity for 125I-BPTI (125I-BPTI): larger binding capacity as compared to HBP
– | – | porcine HBP: Porcine heparin-binding protein, very homologous to human HBP, unable to bind aprotinin (protein) IVGGRRAQPQEFPFLASIQKQGRPFCAGALVHPRFVLTAASCFRGKNSGSASVVLGAYDLRQQEQSRQTFSIRSISQNGYDPRQNLNDVLLLQLDREARLTPSVALVPLPPQNATVEAGTNCQVAGWGTQRLRRLFSRFPRVLNVTVTSNPCLPRDMCIGVFSRRGRISQGDRGTPLVCNGLAQGVASFLRRRFRRSSGFFTRVALFRNWIDSVLNNPP | – | – | – | ability to bind aprotinin (aprotinin): unable to bind aprotinin
